Reference: PMC12678800
Numbering of substitutions follows the chain as printed.

T1: TkoTpt1 K63A (Thermococcus kodakarensis, UniProt Q5JFX3 1-180, K63A)
T1 sequence: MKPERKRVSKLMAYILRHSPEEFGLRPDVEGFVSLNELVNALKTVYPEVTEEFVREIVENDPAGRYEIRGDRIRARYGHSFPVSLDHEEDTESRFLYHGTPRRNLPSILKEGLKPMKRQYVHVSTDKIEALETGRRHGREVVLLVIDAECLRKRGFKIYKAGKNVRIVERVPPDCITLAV

T2: TkoTpt1 (Thermococcus kodakarensis, UniProt Q5JFX3 1-180)
T2 sequence: T1 sequence with A63K

B1: 5'-p-ADPR-DNA (dA10 intermediate) (ssDNA)
DNA: AAAAAAAAAA
modifications: 5'-phospho-ADP-ribosylated, formed in situ from 5'-p-DNA and NAD+
B2: 5'-p-DNA (oligo dA10) (ssDNA)
DNA: AAAAAAAAAA
modifications: 5'-phosphate (lost to NAD+ in the Appr>P complexes, giving 5'-OH DNA)

Key:
TkoTpt1 K63A = target: T1, TkoTpt1 K63A; experiment: X-ray crystallography
TkoTpt1 = target: T2, TkoTpt1; experiment: X-ray crystallography

Row | Binder | binding result (TkoTpt1 K63A) | binding result (TkoTpt1)
1 | B1 | binds | 
2 | B2 |  | binds
